For the assay, the target named is mPiezo1-ALFA_(2420)-HRV3C-GFP (mouse (printed only as mPiezo1)) (UniProt E2JF22). As to the kind of experiment: SEC; Superose-6 (10/300 GL) in 150 mM NaCl, 20 mM tris pH 8, 0.025% C12E10, 4°C. The settings on record: remark: other sources report otherwise.

By stoichiometry N is commonly meant the number of molecules, sites or subunits per partner or assembly. On to “mPiezo1-ALFA_(2420)-HRV3C-GFP, E2JF22 1-2547”, for which the stoichiometry N turned out to be 3.
